Data from patent publication US20070077617.
Positions count from the first letter of the chain named. Numbers in names are those of the source.

B1: OmpT protease variant OmpT D97M (protein)
chain: STETLSFTPDNINADISLGTLSGKTKERVYLAEEGGRKVSQLDWKFNNAAIIKGAINWDLMPQISIGAAGWTTLGSRGGNMVDQDWMDSSNPGTWTMESRHPDTQLNYANEFDLNIKGWLLNEPNYRLGLMAGYQESRYSFTARGGSYIYSSEEGFRDDIGSFPNGERAIGYKQRFKMPYIGLTGSYRYEDFELGGTFKYSGWVESSDNDEHYDPGKRITYRSKVKDQNYYSVAVNAGYYVTPNAKVYVEGAWNRVTNKKGNTSLYDHNNNTSDYSKNGAGIENYNFITTAGLKYTF
B2: OmpT protease variant OmpT D97H (protein)
chain: B1 chain with M97H
B3: OmpT protease variant OmpT D97L (protein)
chain: B1 chain with M97L

Tests used:
fusion protein PRMT = details: scale: relative
fusion protein PRMT, sequence (chain, as listed by the source): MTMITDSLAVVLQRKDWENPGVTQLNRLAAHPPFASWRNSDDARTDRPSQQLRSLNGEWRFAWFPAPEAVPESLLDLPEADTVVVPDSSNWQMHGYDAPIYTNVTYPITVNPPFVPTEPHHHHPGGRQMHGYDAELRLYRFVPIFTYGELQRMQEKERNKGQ

[1] = molecular target: motilin fusion protein PMT6D
motilin fusion protein PMT6D, sequence (chain, as listed by the source): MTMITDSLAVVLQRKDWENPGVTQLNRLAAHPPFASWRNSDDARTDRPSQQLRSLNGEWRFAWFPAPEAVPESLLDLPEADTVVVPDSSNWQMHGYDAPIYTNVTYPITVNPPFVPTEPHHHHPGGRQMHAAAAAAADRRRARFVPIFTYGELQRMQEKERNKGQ

[2] = molecular target: motilin fusion protein PMT7D
motilin fusion protein PMT7D, sequence (chain, as listed by the source): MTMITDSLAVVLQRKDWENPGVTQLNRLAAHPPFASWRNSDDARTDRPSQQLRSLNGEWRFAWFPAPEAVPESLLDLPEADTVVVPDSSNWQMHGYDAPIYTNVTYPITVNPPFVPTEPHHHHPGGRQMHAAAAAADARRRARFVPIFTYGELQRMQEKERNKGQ

[3] = molecular target: human calcitonin precursor fusion protein PCT
human calcitonin precursor fusion protein PCT, sequence (chain, as listed by the source): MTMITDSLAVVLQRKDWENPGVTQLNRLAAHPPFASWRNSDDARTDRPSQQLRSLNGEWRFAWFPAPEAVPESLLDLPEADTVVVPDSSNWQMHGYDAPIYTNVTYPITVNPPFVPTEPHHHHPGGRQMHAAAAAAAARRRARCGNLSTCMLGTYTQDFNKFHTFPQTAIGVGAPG

[4] = molecular target: human adrenocorticotropic hormone(1-24) fusion protein PAC
human adrenocorticotropic hormone(1-24) fusion protein PAC, sequence (chain, as listed by the source): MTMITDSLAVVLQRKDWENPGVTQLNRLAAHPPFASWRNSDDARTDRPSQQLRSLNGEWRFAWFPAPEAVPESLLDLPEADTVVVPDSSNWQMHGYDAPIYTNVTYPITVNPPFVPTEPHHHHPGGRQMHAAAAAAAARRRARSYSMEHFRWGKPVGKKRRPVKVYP

fusion protein PRG, sequence (chain, as listed by the source): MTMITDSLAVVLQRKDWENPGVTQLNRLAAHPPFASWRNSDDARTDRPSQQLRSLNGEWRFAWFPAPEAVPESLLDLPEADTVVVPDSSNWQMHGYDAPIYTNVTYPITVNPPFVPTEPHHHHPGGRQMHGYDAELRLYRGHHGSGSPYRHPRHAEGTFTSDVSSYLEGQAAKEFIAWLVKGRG
fusion protein PRL, sequence (chain, as listed by the source): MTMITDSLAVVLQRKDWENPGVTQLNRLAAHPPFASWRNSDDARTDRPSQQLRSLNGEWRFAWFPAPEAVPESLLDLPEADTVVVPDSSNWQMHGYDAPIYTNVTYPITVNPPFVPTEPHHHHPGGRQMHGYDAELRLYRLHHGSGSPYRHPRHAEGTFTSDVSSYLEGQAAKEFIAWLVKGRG
fusion protein PRQ, sequence (chain, as listed by the source): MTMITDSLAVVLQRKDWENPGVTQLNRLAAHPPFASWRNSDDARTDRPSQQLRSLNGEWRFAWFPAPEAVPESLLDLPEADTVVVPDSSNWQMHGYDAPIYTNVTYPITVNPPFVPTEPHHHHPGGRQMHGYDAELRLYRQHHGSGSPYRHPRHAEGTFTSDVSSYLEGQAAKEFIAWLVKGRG
fusion protein PRY, sequence (chain, as listed by the source): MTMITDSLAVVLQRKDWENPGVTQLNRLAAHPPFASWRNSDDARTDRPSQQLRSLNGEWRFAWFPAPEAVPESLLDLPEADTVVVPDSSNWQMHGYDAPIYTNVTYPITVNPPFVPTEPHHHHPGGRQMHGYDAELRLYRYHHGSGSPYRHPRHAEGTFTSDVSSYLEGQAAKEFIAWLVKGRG
fusion protein PRC, sequence (chain, as listed by the source): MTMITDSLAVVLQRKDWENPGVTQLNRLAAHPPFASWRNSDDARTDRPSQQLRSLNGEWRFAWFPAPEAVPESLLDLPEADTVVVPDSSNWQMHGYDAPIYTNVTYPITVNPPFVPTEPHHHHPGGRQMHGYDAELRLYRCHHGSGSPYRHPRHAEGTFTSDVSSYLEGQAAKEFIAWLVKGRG
fusion protein PRF, sequence (chain, as listed by the source): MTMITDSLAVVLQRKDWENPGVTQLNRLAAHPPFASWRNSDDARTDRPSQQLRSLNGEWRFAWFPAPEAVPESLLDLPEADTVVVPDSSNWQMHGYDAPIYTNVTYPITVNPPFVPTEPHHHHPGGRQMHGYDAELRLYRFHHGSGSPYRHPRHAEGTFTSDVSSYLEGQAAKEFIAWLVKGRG
fusion protein PRK, sequence (chain, as listed by the source): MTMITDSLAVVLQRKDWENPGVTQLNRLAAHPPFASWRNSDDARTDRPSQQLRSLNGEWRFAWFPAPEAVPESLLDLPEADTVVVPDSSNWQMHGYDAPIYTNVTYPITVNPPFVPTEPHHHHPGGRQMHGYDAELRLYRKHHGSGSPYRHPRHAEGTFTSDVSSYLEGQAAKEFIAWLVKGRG
fusion protein PRR, sequence (chain, as listed by the source): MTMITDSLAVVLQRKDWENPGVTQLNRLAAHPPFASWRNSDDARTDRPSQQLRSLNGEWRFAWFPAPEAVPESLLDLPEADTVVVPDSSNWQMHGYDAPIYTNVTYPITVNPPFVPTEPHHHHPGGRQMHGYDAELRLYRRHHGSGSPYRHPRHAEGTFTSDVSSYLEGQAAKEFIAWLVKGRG
fusion protein PRM, sequence (chain, as listed by the source): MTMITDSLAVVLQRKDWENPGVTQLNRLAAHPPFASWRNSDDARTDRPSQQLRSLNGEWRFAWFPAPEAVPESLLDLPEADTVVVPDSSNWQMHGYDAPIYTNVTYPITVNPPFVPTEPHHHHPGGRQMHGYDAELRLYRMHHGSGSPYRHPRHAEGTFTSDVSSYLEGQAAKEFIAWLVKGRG
fusion protein PRN, sequence (chain, as listed by the source): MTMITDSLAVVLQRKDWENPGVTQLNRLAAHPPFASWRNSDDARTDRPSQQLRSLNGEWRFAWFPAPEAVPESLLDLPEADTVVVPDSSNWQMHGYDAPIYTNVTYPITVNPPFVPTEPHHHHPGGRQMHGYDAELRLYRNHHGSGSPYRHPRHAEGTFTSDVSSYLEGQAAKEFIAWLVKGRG
fusion protein PRS, sequence (chain, as listed by the source): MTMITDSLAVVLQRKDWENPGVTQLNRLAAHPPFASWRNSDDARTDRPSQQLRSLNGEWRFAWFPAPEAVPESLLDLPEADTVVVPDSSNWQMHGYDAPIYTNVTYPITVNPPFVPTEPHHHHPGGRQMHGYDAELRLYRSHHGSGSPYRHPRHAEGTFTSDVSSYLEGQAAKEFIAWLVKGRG
fusion protein PMT, sequence (chain, as listed by the source): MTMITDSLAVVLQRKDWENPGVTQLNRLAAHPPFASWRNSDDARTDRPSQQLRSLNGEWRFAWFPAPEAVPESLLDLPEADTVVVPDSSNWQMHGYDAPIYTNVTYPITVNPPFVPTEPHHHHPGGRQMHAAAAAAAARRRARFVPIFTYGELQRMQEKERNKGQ
fusion protein PRW, sequence (chain, as listed by the source): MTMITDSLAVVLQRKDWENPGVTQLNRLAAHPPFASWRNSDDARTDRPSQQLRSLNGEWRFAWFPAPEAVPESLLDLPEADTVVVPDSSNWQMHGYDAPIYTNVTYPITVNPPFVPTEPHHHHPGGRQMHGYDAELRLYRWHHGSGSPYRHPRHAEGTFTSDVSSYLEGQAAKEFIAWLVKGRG
fusion protein PRH, sequence (chain, as listed by the source): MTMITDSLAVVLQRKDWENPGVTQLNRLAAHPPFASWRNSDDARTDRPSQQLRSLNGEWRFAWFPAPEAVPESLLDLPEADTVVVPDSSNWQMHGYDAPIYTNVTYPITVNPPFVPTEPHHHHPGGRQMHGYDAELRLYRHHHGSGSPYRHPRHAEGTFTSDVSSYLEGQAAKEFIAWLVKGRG
fusion protein PRT, sequence (chain, as listed by the source): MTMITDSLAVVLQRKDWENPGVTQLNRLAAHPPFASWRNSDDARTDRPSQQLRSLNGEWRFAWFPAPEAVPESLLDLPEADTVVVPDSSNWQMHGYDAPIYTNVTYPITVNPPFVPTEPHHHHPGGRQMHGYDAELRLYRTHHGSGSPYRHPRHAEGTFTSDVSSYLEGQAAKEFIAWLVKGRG
fusion protein PRI, sequence (chain, as listed by the source): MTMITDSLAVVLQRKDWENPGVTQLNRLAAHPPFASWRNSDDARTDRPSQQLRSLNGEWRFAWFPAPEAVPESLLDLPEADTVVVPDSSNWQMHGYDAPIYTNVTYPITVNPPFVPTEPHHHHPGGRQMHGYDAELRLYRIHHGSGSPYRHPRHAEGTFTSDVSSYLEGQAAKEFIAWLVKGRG
fusion protein PRD, sequence (chain, as listed by the source): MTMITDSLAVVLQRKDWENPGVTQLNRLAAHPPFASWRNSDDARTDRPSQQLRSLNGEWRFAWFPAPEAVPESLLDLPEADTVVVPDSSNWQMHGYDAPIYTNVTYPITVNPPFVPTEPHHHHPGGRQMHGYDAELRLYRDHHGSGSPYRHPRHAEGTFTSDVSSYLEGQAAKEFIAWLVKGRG
fusion protein PRE, sequence (chain, as listed by the source): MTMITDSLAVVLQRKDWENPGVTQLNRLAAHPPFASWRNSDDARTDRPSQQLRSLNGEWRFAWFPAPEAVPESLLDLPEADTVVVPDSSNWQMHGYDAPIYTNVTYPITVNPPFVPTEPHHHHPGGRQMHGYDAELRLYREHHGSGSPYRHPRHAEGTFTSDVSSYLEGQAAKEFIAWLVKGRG
fusion protein PRA, sequence (chain, as listed by the source): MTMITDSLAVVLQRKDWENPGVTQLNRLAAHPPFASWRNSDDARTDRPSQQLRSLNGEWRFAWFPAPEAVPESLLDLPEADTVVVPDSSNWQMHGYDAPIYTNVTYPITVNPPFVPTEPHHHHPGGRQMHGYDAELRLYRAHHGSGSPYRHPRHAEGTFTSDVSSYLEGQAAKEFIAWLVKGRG

Protein	relative cleavage efficiency (fusion protein PRA) [%]	relative cleavage efficiency (fusion protein PRC) [%]	relative cleavage efficiency (fusion protein PRD)	relative cleavage efficiency (fusion protein PRE)	relative cleavage efficiency (fusion protein PRF) [%]	relative cleavage efficiency (fusion protein PRG)	relative cleavage efficiency (fusion protein PRH)	relative cleavage efficiency (fusion protein PRI) [%]	relative cleavage efficiency (fusion protein PRK) [%]	relative cleavage efficiency (fusion protein PRL)	relative cleavage efficiency (fusion protein PRM) [%]	relative cleavage efficiency (fusion protein PRN) [%]	relative cleavage efficiency (fusion protein PRP)	relative cleavage efficiency (fusion protein PRQ)	relative cleavage efficiency (fusion protein PRR) [%]	relative cleavage efficiency (fusion protein PRS) [%]	relative cleavage efficiency (fusion protein PRT) [%]	relative cleavage efficiency (fusion protein PRW)	relative cleavage efficiency (fusion protein PRY) [%]	also measured
B1	6	6.5	less than 3%	less than 3%	7.7	less than 3%	less than 3%	< 3	< 3	less than 3%	< 3	< 3	less than 3%	less than 3%	< 3	7.1	< 3	less than 3%	6.2	amount of motilin released, against PRMT (fusion protein PMT): the amount of motilin released from PMT was 3.5 times higher than from PRMT; by-product AR-motilin (motilin = 100) (fusion protein PMT): By-products were yielded at 2.8 and 33% with PMT; by-product RRAR-motilin (motilin = 100) (fusion protein PMT): By-products were yielded at 2.8 and 33% with PMT; digestion (SDS-PAGE), co-expressed inclusion bodies (fusion protein PMT): reaction of 1440 minutes, i.e. 24 hours, caused virtually complete digestion of the fusion protein PMT; motilin released (fusion protein PMT): Motilin was released at 280, 250 and 370 µg/mL from the motilin fusion proteins PMT, PMT6D and PMT7D, respectively; relative cleavage efficiency: Motilin (Arg^143-Phe^144) (fusion protein PMT; scale: relative): 78; relative cleavage efficiency: RRAR-motilin (Arg^139-Arg^140) (fusion protein PMT; scale: relative): 24; relative cleavage efficiency: Motilin (Arg^140-Phe^141) (fusion protein PRMT): 22; by-product AR-motilin (motilin = 100) [1]: at 3.5 and 16% with PMT6D; by-product RRAR-motilin (motilin = 100) [1]: at 3.5 and 16% with PMT6D; motilin released [1]: Motilin was released at 280, 250 and 370 µg/mL from the motilin fusion proteins PMT, PMT6D and PMT7D, respectively; by-product RRAR-motilin [2]: no peak for RRAR-motilin was detected with PMT7D; motilin released [2]: Motilin was released at 280, 250 and 370 µg/mL from the motilin fusion proteins PMT, PMT6D and PMT7D, respectively
B2	8.4	11	less than 3%	less than 3%	4.1	less than 3%	less than 3%	3.1	4.5	less than 3%	4.6	3.5	less than 3%	less than 3%	4.6	8.7	3	less than 3%	< 3	cleavage (HPLC, mass analysis) [3]: PCT was cleaved at Arg^139-Arg^140. Arg^141-Ala^142 and Arg^143-Cys^144 by D97H, releasing RRAR-CT, AR-CT and human calcitonin precursor
B3	7.1	3.9	less than 3%	less than 3%	4.7	less than 3%	less than 3%	< 3	< 3	less than 3%	< 3	< 3	less than 3%	less than 3%	< 3	9.1	< 3	less than 3%	3.2	by-products [4]: No by-products were released by cleavage at other sites; release of human adrenocorticotropic hormone(1-24), against wild-type OmpT protease [4]: released human adrenocorticotropic hormone(1-24) at 2.9 times compared to wild-type OmpT protease
